B1: Anti-IL-6 antibody, heavy chain S35H, G66D, L100E / light chain WT (antibody, IgG1, V domains shown)
VH: EVQLVESGGGLVQPGGSLRLSCAASGFTFSPFAMHWVRQAPGKGLEWVAKISPGGSWTYYSDTVTDRFTFSLDTSKSTAYLQMNSLRAEDTAVYYCARQEWGYYALDIWGQGTLVTVSS
VL: DIQLTQSPSSLSASVGDRVTITCSASISVSYMYWYQQKPGKAPKLLIYDMSNLASGVPSRFSGSGSGTDFTLTISSLQPEDFATYYCMQWSGYPYTFGQGTKVEIK
notes: IgG1; variable domains only
B2: Anti-IL-6 antibody, heavy chain S35H, G66D, Q99E / light chain WT (antibody, IgG1, V domains shown)
VH: B1 VH with Q99E, E100L
VL: B1 VL
notes: IgG1; variable domains only
B3: Anti-IL-6 antibody, heavy chain S35H, G66D, L100I / light chain WT (antibody, IgG1, V domains shown)
VH: B1 VH with E100I
VL: B1 VL
notes: IgG1; variable domains only
B4: Anti-IL-6 antibody, heavy chain S35H, G66D, L100G / light chain WT (antibody, IgG1, V domains shown)
VH: B1 VH with E100G
VL: B1 VL
notes: IgG1; variable domains only
B5: Anti-IL-6 antibody, heavy chain S35H, G66D, Q99F / light chain WT (antibody, IgG1, V domains shown)
VH: B1 VH with Q99F, E100L
VL: B1 VL
notes: IgG1; variable domains only
B6: Anti-IL-6 antibody, heavy chain S35H, G66D, Q99D / light chain M32L, M50D, N52S, M88Q (antibody, IgG1, V domains shown)
VH: B1 VH with Q99D, E100L
VL: B1 VL with M32L, M50D, N52S, M88Q
notes: IgG1; variable domains only; VL is variant III
B7: Anti-IL-6 antibody, heavy chain S35H, G66D, Q99G / light chain M32L, M50D, N52S, M88Q (antibody, IgG1, V domains shown)
VH: B1 VH with Q99G, E100L
VL: B1 VL with M32L, M50D, N52S, M88Q
notes: as for B6
B8: Anti-IL-6 antibody, heavy chain S35H, G66D, L100Y / light chain M32L, M50D, N52S, M88Q (antibody, IgG1, V domains shown)
VH: B1 VH with E100Y
VL: B1 VL with M32L, M50D, N52S, M88Q
notes: as for B6
B9: Anti-IL-6 antibody, heavy chain S35H, G66D, L100F / light chain WT (antibody, IgG1, V domains shown)
VH: B1 VH with E100F
VL: B1 VL
notes: IgG1; variable domains only
B10: Anti-IL-6 antibody, heavy chain S35H, G66D, L100W / light chain M32L, M50D, N52S, M88Q (antibody, IgG1, V domains shown)
VH: B1 VH with E100W
VL: B1 VL with M32L, M50D, N52S, M88Q
notes: as for B6
B11: Anti-IL-6 antibody, heavy chain S35H, G66D, Q99E / light chain M32L, M50D, N52S, M88Q (antibody, IgG1, V domains shown)
VH: B1 VH with Q99E, E100L
VL: B1 VL with M32L, M50D, N52S, M88Q
notes: as for B6
B12: Anti-IL-6 antibody, heavy chain S35H, G66D, Q99F / light chain M32L, M50D, N52S, M88Q (antibody, IgG1, V domains shown)
VH: B1 VH with Q99F, E100L
VL: B1 VL with M32L, M50D, N52S, M88Q
notes: as for B6
B13: Anti-IL-6 antibody, heavy chain S35H, G66D, Q99G / light chain WT (antibody, IgG1, V domains shown)
VH: B1 VH with Q99G, E100L
VL: B1 VL
notes: IgG1; variable domains only
B14: Anti-IL-6 antibody, heavy chain S35H, G66D, L100K / light chain WT (antibody, IgG1, V domains shown)
VH: B1 VH with E100K
VL: B1 VL
notes: IgG1; variable domains only
B15: Anti-IL-6 antibody, heavy chain S35H, G66D, L100R / light chain M32L, M50D, N52S, M88Q (antibody, IgG1, V domains shown)
VH: B1 VH with E100R
VL: B1 VL with M32L, M50D, N52S, M88Q
notes: as for B6
B16: Anti-IL-6 antibody, heavy chain S35H, G66D, L100H / light chain WT (antibody, IgG1, V domains shown)
VH: B1 VH with E100H
VL: B1 VL
notes: IgG1; variable domains only
B17: Anti-IL-6 antibody, heavy chain S35H, G66D, L100I / light chain M32L, M50D, N52S, M88Q (antibody, IgG1, V domains shown)
VH: B1 VH with E100I
VL: B1 VL with M32L, M50D, N52S, M88Q
notes: as for B6
B18: Anti-IL-6 antibody, heavy chain S35H, G66D, L100S / light chain WT (antibody, IgG1, V domains shown)
VH: B1 VH with E100S
VL: B1 VL
notes: IgG1; variable domains only
B19: Anti-IL-6 antibody, heavy chain S35H, G66D, Q99H / light chain M32L, M50D, N52S, M88Q (antibody, IgG1, V domains shown)
VH: B1 VH with Q99H, E100L
VL: B1 VL with M32L, M50D, N52S, M88Q
notes: as for B6
B20: Anti-IL-6 antibody, heavy chain S35H, G66D, L100P / light chain M32L, M50D, N52S, M88Q (antibody, IgG1, V domains shown)
VH: B1 VH with E100P
VL: B1 VL with M32L, M50D, N52S, M88Q
notes: as for B6
B21: Anti-IL-6 antibody, heavy chain S35H, G66D, Q99I / light chain M32L, M50D, N52S, M88Q (antibody, IgG1, V domains shown)
VH: B1 VH with Q99I, E100L
VL: B1 VL with M32L, M50D, N52S, M88Q
notes: as for B6
B22: Anti-IL-6 antibody, heavy chain S35H, G66D, Q99A / light chain WT (antibody, IgG1, V domains shown)
VH: B1 VH with Q99A, E100L
VL: B1 VL
notes: IgG1; variable domains only
B23: Anti-IL-6 antibody, heavy chain S35H, G66D, L100T / light chain WT (antibody, IgG1, V domains shown)
VH: B1 VH with E100T
VL: B1 VL
notes: IgG1; variable domains only
B24: Anti-IL-6 antibody, heavy chain S35H, G66D, Q99A / light chain M32L, M50D, N52S, M88Q (antibody, IgG1, V domains shown)
VH: B1 VH with Q99A, E100L
VL: B1 VL with M32L, M50D, N52S, M88Q
notes: as for B6
B25: Anti-IL-6 antibody, heavy chain S35H, G66D, L100R / light chain WT (antibody, IgG1, V domains shown)
VH: B1 VH with E100R
VL: B1 VL
notes: IgG1; variable domains only
B26: Anti-IL-6 antibody, heavy chain S35H, G66D, L100H / light chain M32L, M50D, N52S, M88Q (antibody, IgG1, V domains shown)
VH: B1 VH with E100H
VL: B1 VL with M32L, M50D, N52S, M88Q
notes: as for B6
B27: Anti-IL-6 antibody, heavy chain S35H, G66D, L100Y / light chain WT (antibody, IgG1, V domains shown)
VH: B1 VH with E100Y
VL: B1 VL
notes: IgG1; variable domains only
B28: Anti-IL-6 antibody, heavy chain S35H, G66D, L100V / light chain WT (antibody, IgG1, V domains shown)
VH: B1 VH with E100V
VL: B1 VL
notes: IgG1; variable domains only
B29: Anti-IL-6 antibody, heavy chain S35H, G66D, Q99H / light chain WT (antibody, IgG1, V domains shown)
VH: B1 VH with Q99H, E100L
VL: B1 VL
notes: IgG1; variable domains only
B30: Anti-IL-6 antibody, heavy chain S35H, G66D, Q99D / light chain WT (antibody, IgG1, V domains shown)
VH: B1 VH with Q99D, E100L
VL: B1 VL
notes: IgG1; variable domains only
B31: Anti-IL-6 antibody, heavy chain S35H, G66D, L100Q / light chain WT (antibody, IgG1, V domains shown)
VH: B1 VH with E100Q
VL: B1 VL
notes: IgG1; variable domains only
B32: Anti-IL-6 antibody, heavy chain S35H, G66D, L100F / light chain M32L, M50D, N52S, M88Q (antibody, IgG1, V domains shown)
VH: B1 VH with E100F
VL: B1 VL with M32L, M50D, N52S, M88Q
notes: as for B6

Numbering of substitutions follows the chain as printed. Names may count otherwise.

What is called Kd is the equilibrium constant for the complex coming apart. Low readings indicate tighter binding, high ones weaker binding. A word on the koff: it is the rate constant with which the complex falls apart. A lower koff goes with a long-lived complex. As usually defined, the kon is a measure of how fast the partners come together.

human IL-6, sequence (P05231 30-212 limits assumed): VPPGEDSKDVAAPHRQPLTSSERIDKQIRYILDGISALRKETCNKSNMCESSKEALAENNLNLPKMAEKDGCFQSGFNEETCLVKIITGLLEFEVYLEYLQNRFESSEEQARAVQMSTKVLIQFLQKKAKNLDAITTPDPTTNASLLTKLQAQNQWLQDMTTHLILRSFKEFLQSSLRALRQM

This test concerns the target human IL-6 (human, UniProt P05231 30-212). Description: SPR Biacore, supernatant, Protein A capture, 37 C. On the procedure:
Those four positions were selected based on their tolerance for mutations as observed in bacterial and mammalian screens. […] These cultures were centrifuged and supernatants containing secreted antibodies were harvested and diluted in HBS-EP+ running buffer (1:20 ratio).
Antibodies were captured on a Protein A chip (GE) by injecting 1:20 cell supernatant dilutions at 10 μL/min for 60 seconds. […] The sensor chip was regenerated by a 60 seconds injection of 10 mM Glycine pH 1.7 at the flow rate of 50 μL/min. […] For this setup, 1 μg/mL of purified antibody was injected over a Protein A chip at 10 μL/min for 25 seconds. […] The sensor chip was regenerated by a 60 seconds injection of 10 mM Glycine pH 1.7 at flow rate of 50 μL/min. Data analysis for supernatant and purified samples were performed using BIAevaluation software (GE). All sensorgrams were double reference subtracted and fit using a 1:1 Langmuir binding model.
(In general: In SPR one partner is held on a chip, and binding of the other changes the refractive index at the surface.)
Take B1: binding was characterised by a dissociation constant (Kd) of 0.766 nM, the koff is 0.000869 s⁻¹ and the kon was found to be 1.13e+06 M⁻¹ s⁻¹.
B2 returned a Kd of 3.91 nM, an off-rate constant (koff) of 0.00193 s⁻¹ and a kon of 493000 M⁻¹ s⁻¹.
Turning to B3, binding was put at a Kd of 0.692 nM, the dissociation rate constant (koff) was found to be 0.000644 s⁻¹ and the kon stood at 931000 M⁻¹ s⁻¹.
Molecule B4 gave a Kd of 0.3 nM, a koff of 0.00096 s⁻¹ and a kon of 3.2e+06 M⁻¹ s⁻¹.
As to B5, the affinity, expressed as Kd, was 3.39 nM; the koff stood at 0.00166 s⁻¹; the kon worked out at 489000 M⁻¹ s⁻¹.
In the case of B6, the affinity, expressed as Kd, was 3.61 nM.
Molecule B7 came in with a Kd of 2.58 nM, a koff of 0.00774 s⁻¹ and a kon of 3e+06 M⁻¹ s⁻¹.
Turning to B8, the Kd came to 0.934 nM, the dissociation rate constant (koff) is 0.000801 s⁻¹ and the kon is 858000 M⁻¹ s⁻¹.
As for B9, the Kd came out at 0.244 nM, the koff came to 0.000612 s⁻¹ and the kon came out at 2.51e+06 M⁻¹ s⁻¹.
B10 returned a Kd of 1.98 nM, a koff of 0.00124 s⁻¹ and a kon of 625000 M⁻¹ s⁻¹.
Taken in the same sequence, the figures for B11 were 4.71 nM, 0.00089 s⁻¹ and 189000 M⁻¹ s⁻¹.
As to B12, the Kd worked out at 0.0997 nM, the dissociation rate constant (koff) turned out to be 0.000113 s⁻¹ and the kon is 1.14e+06 M⁻¹ s⁻¹.
The corresponding values for B13 are 0.961 nM, 0.0033 s⁻¹ and 3.43e+06 M⁻¹ s⁻¹.
Taken in the same sequence, the figures for B14 were 0.18 nM, 0.00106 s⁻¹ and 5.88e+06 M⁻¹ s⁻¹.
B15 registered a Kd of 0.878 nM, a koff of 0.00116 s⁻¹ and a kon of 1.32e+06 M⁻¹ s⁻¹.
Turning to B16, the dissociation constant (Kd) is 0.688 nM, the koff amounted to 0.000498 s⁻¹ and the on-rate constant (kon) came to 723000 M⁻¹ s⁻¹.
In turn, B17 came in with a Kd of 0.372 nM, a koff of 0.000712 s⁻¹ and a kon of 1.91e+06 M⁻¹ s⁻¹.
Taken in the same sequence, the figures for B18 were 0.196 nM, 0.000644 s⁻¹ and 3.28e+06 M⁻¹ s⁻¹.
Taken in the same sequence, the figures for B19 were 5.52 nM, 0.00441 s⁻¹ and 798000 M⁻¹ s⁻¹.
B20 had a Kd of 4.66 nM, a koff of 0.00354 s⁻¹ and a kon of 759000 M⁻¹ s⁻¹.
The corresponding values for B21 are 0.0381 nM, 0.000206 s⁻¹ and 5.41e+06 M⁻¹ s⁻¹.
Taken in the same sequence, the figures for B22 were 0.717 nM, 0.00132 s⁻¹ and 1.85e+06 M⁻¹ s⁻¹.
In turn, B23 showed a Kd of 0.217 nM, a koff of 0.000724 s⁻¹ and a kon of 3.34e+06 M⁻¹ s⁻¹.
As to B24, the Kd turned out to be 3.07 nM, the koff was determined as 0.0045 s⁻¹ and the kon was found to be 1.47e+06 M⁻¹ s⁻¹.
In turn, B25 returned a dissociation constant (Kd) of 1.01 nM, a koff of 0.000957 s⁻¹ and a kon of 951000 M⁻¹ s⁻¹.
The corresponding values for B26 are 0.83 nM, 0.00129 s⁻¹ and 1.55e+06 M⁻¹ s⁻¹.
Regarding B27, the Kd was 0.638 nM, the koff was found to be 0.000642 s⁻¹ and the kon is 1.01e+06 M⁻¹ s⁻¹.
Turning to B28, the affinity, expressed as Kd, was 0.244 nM; the koff is 0.000579 s⁻¹; the kon turned out to be 2.37e+06 M⁻¹ s⁻¹.
B29 came in with an equilibrium dissociation constant (Kd) of 1.7 nM, a dissociation rate constant (koff) of 0.00136 s⁻¹ and a kon of 802000 M⁻¹ s⁻¹.
On to B30, for which the Kd stood at 2.34 nM, the dissociation rate constant (koff) stood at 0.00302 s⁻¹ and the kon was 1.29e+06 M⁻¹ s⁻¹.
B31 came in with a Kd of 0.18 nM, a koff of 0.00064 s⁻¹ and a kon of 3.56e+06 M⁻¹ s⁻¹.
Regarding B32, the affinity, expressed as Kd, was 0.422 nM; the koff was 0.000614 s⁻¹; the kon was found to be 1.46e+06 M⁻¹ s⁻¹.

The values are drawn from patent US20240209076A1 (KODIAK SCIENCES, published 2024).
